Data published in PMC8529494, “KAT6A Acetylation of SMAD3 Regulates Myeloid‐Derived Suppressor Cell Recruitment, Metastasis, and Immunotherapy in Triple‐Negative Breast Cancer” (Advanced Science, 2021).

Molecular target: T1, (His)6-TRIM24 (UniProt O15164 1-1050)
T1 construct: Tripartite motif-containing 24 (TRIM24); also called tripartite motif-containing 24; source: recombinant, purified
T1 sequence (looked up): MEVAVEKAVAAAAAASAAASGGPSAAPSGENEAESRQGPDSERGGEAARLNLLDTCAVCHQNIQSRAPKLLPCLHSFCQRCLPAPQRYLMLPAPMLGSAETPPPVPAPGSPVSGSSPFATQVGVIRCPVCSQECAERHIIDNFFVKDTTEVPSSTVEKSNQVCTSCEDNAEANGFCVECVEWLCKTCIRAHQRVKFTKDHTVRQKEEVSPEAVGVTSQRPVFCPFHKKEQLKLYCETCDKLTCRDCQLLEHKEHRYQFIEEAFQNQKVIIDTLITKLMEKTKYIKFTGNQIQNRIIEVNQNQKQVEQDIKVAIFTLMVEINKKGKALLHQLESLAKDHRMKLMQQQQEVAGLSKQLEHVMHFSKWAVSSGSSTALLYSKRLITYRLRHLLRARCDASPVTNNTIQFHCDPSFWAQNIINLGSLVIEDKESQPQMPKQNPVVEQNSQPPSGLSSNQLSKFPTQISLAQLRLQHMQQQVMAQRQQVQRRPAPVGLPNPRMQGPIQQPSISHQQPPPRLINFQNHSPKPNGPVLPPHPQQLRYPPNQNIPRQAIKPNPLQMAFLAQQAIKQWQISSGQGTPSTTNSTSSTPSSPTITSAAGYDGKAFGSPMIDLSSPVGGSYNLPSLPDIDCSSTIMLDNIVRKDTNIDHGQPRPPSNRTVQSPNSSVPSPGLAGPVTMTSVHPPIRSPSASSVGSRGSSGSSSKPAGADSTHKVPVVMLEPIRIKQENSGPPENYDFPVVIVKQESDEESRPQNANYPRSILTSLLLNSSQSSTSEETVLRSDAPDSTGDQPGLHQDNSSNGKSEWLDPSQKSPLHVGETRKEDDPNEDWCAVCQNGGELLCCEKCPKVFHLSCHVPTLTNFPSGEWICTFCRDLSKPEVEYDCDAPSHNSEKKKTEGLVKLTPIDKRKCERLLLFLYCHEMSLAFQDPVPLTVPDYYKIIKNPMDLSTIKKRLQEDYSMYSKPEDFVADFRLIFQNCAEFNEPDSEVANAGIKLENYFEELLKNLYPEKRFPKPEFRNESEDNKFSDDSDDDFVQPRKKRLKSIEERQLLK
Assay: pull-down; GST pull-down with purified GST-SMAD3 and (His)6-TRIM24, western blot with anti-TRIM24 and anti-SMAD3
Settings: both partners purified

- binding result: binds
B1: GST-SMAD3 (natural protein, UniProt P84022 1-425, looked up)
chain: MSSILPFTPPIVKRLLGWKKGEQNGQEEKWCEKAVKSLVKKLKKTGQLDELEKAITTQNVNTKCITIPRSLDGRLQVSHRKGLPHVIYCRLWRWPDLHSHHELRAMELCEFAFNMKKDEVCVNPYHYQRVETPVLPPVLVPRHTEIPAEFPPLDDYSHSIPENTNFPAGIEPQSNIPETPPPGYLSEDGETSDHQMNHSMDAGSPNLSPNPMSPAHNNLDLQPVTYCEPAFWCSISYYELNQRVGETFHASQPSMTVDGFTDPSNSERFCLGLLSNVNRNAAVELTRRHIGRGVRLYYIGGEVFAECLSDSAIFVQSPNCNQRYGWHPATVCKIPPGCNLKIFNNQEFAALLAQSVNQGFEAVYQLTRMCTIRMSFVKGWGAEYRRQTVTSTPCWIELHLNGPLQWLDKVLTQMGSPSIRCSSVS
notes: SMAD3; also called recombinant GST-SMAD3; source: recombinant, purified
